Patent US20170233472A1 (MacroGenics, published 2017)

How the values were obtained:
[1] = biological target: T1, His-tagged soluble human ROR1 (shROR1-His) (human, UniProt Q01973 30-406); test: SPR (BIACORE), trivalent binding molecule 6.25 to 100 nM passed over immobilized shROR1-His
T1 construct: also called ROR1 protein; immobilized ROR1; not shown: His-Tag
Description: The binding kinetics of each of the ROR1×CD3×CD8 trivalent binding molecules to ROR1 was investigated using BIACORE® analysis in which each trivalent binding molecule (6.25 to 100 nM) was passed over immobilized shROR1-His essentially as described above.

[2] = biological target: human ROR1 expressed on the surface of cancer cells (human, UniProt Q01973 30-937); test: cell-based or functional assay
[3] = biological target: T1, His-tagged soluble human ROR1 …; test: SPR (Biacore), shROR1-His captured on anti-PentaHis surface, diabody 6.25-100 nM as analyte
Description: The binding affinity of DART-1, DART-A, DART-B, and DART-C was investigated using Biacore analysis in which each diabody construct was passed over immobilized ROR1. Briefly, shROR1-His was captured on immobilized anti-PentaHis surface and was incubated with DART-1, DART-A, DART-B or DART-C at 6.25-100 nM, and the kinetics of binding was determined via Biacore analysis.

[4] = biological target: T1, His-tagged soluble human ROR1 …; test: sandwich ELISA: plate coated with shROR1-His, serial dilutions of diabody, bound diabody detected with biotinylated CD3 and streptavidin-HRP; y axis 'Mean Value'
Description: The ability of the bispecific ROR1×CD3 two and three chain diabodies DART-1 and DART-A to bind both ROR1 and CD3 was examined by a sandwich ELISA. Briefly, microtiter plates were coated with shROR1-His, the plates were washed and incubated with three-fold serial dilutions of DART-1 or DART-A. The amount of diabody binding to the immobilized ROR1 was assessed using a biotinylated CD3 detected with Streptavidin-HRP. All samples were analyzed on a plate reader and binding curves generated. […] The cells were washed twice incubated with biotin-conjugated mouse anti-EK-coil antibody that recognizes the E-coil/K-coil (EK) heterodimerization region (100 μL of 1 μg/mL mixed with 1:500 diluted streptavidin-phycoerythrin) for 45 min. The cells were then washed and resuspended with FACS buffer, and analyzed with a BD FCS Canto II flow cytometer using FlowJo v10 software.

human ROR1 expressed on the surface of cancer cells, sequence (Q01973 30-937): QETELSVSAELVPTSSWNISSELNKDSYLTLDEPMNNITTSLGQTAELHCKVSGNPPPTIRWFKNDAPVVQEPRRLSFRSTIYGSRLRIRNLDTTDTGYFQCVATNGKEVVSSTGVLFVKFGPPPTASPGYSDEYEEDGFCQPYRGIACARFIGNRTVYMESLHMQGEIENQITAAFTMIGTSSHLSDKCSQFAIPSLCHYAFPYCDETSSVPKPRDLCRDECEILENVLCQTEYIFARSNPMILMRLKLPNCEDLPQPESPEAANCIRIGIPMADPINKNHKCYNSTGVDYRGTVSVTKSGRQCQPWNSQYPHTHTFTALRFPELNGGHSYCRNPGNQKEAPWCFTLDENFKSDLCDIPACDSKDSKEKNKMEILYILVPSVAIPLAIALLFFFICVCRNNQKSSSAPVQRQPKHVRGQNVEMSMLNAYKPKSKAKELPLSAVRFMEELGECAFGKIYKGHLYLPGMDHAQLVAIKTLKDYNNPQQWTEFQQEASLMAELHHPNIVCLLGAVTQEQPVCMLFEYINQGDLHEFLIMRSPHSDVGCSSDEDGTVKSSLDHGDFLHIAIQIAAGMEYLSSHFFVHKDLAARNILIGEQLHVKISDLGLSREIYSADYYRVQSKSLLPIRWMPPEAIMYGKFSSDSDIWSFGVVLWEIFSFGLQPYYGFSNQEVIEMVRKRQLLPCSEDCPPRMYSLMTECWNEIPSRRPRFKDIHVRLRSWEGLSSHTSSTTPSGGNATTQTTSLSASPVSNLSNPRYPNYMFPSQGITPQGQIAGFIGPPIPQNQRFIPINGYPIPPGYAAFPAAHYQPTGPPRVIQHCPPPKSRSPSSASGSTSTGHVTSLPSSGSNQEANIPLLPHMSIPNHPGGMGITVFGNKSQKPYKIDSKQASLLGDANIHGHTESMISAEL
T1 sequence (Q01973 30-406): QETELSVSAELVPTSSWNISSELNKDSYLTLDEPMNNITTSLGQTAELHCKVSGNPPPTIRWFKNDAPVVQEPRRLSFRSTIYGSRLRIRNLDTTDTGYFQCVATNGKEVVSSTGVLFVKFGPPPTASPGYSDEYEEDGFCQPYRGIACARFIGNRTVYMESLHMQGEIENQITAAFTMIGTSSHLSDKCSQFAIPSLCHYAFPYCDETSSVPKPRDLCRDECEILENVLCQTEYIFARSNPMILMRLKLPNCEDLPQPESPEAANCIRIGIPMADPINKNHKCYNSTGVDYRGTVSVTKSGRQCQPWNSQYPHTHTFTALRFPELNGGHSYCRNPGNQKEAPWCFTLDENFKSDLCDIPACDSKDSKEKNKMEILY

Row | Binder | Kd [1] [nM] | EC50 nM, redirected cell killing of Calu-3 cells by pan T-cells (LDH release) [2] [nM] | EC50 nM, redirected cell killing of JIMT-1 cells by pan T-cells (LDH release) [2] [nM] | EC50 nM, redirected cell killing of NCI-H1975 cells by pan T-cells (LDH release) [2] [nM] | Kd [3] [nM] | EC50 (read off the curve) [4] [nM]
1 | TRIDENT-A (other, parental anti-ROR1-VL/VH, CD3 mAb 1 (D65G), TRX2 (anti-CD8) as scFv-Fc third chain) chain 1: QLVLTQSPSASASLGSSVKLTCTLSSGHKTDTIDWYQQQPGKAPRYLMKLEGSGSYNKGSGVPDRFGSGSSSGADRYLTISSLQSEDEADYYCGTDYPGNYLFGGGTQLTVLGGGGSGGGGEVQLVESGGGLVQPGGSLRLSCAASGFTFSTYAMNWVRQAPGKGLEWVGRIRSKYNNYATYYADSVKGRFTISRDDSKNSLYLQMNSLKTEDTAVYYCVRHGNFGNSYVSWFAYWGQGTLVTVSSASTKGEVAACEKEVAALEKEVAALEKEVAALEKGGGDKTHTCPPCPAPEAAGGPSVFLFPPKPKDTLMISRTPEVTCVVVDVSHEDPEVKFNWYVDGVEVHNAKTKPREEQYNSTYRVVSVLTVLHQDWLNGKEYKCKVSNKALPAPIEKTISKAKGQPREPQVYTLPPSREEMTKNQVSLWCLVKGFYPSDIAVEWESNGQPENNYKTTPPVLDSDGSFFLYSKLTVDKSRWQQGNVFSCSVMHEALHNHYTQKSLSLSPGK chain 2: QAVVTQEPSLTVSPGGTVTLTCRSSTGAVTTSNYANWVQQKPGQAPRGLIGGTNKRAPWTPARFSGSLLGGKAALTITGAQAEDEADYYCALWYSNLWVFGGGTKLTVLGGGGSGGGGQEQLVESGGGLVQPGGSLRLSCAASGFTFSDYYMSWVRQAPGKGLEWVATIYPSSGKTYYADSVKGRFTISSDNAKNSLYLQMNSLRAEDTAVYYCARDSYADDAALFDIWGQGTTVTVSSASTKGKVAACKEKVAALKEKVAALKEKVAALKE chain 3: DIQMTQSPSSLSASVGDRVTITCKGSQDINNYLAWYQQKPGKAPKLLIYNTDILHTGVPSRFSGSGSGTDFTFTISSLQPEDIATYYCYQYNNGYTFGCGTKVEIKGGGGSGGGGSGGGGSQVQLVESGGGVVQPGRSLRLSCAASGFTFSDFGMNWVRQAPGKCLEWVALIYYDGSNKFYADSVKGRFTISRDNSKNTLYLQMNSLRAEDTAVYYCAKPHYDGYYHFFDSWGQGTLVTVSSVEPKSADKTHTCPPCPAPEAAGGPSVFLFPPKPKDTLMISRTPEVTCVVVDVSHEDPEVKFNWYVDGVEVHNAKTKPREEQYNSTYRVVSVLTVLHQDWLNGKEYKCKVSNKALPAPIEKTISKAKGQPREPQVYTLPPSREEMTKNQVSLSCAVKGFYPSDIAVEWESNGQPENNYKTTPPVLDSDGSFFLVSKLTVDKSRWQQGNVFSCSVMHEALHNRYTQKSLSLSPGK | 1.3 | 0.0027 | 0.0022 | 0.0039 | – | –
2 | TRIDENT-B (other, parental anti-ROR1-VL/VH, CD3 mAb 1 (D65G), TRX2 (anti-CD8) as Fab-type heavy and light chains) chain 1: QLVLTQSPSASASLGSSVKLTCTLSSGHKTDTIDWYQQQPGKAPRYLMKLEGSGSYNKGSGVPDRFGSGSSSGADRYLTISSLQSEDEADYYCGTDYPGNYLFGGGTQLTVLGGGGSGGGGEVQLVESGGGLVQPGGSLRLSCAASGFTFSTYAMNWVRQAPGKGLEWVGRIRSKYNNYATYYADSVKGRFTISRDDSKNSLYLQMNSLKTEDTAVYYCVRHGNFGNSYVSWFAYWGQGTLVTVSSASTKGEVAACEKEVAALEKEVAALEKEVAALEKGGGDKTHTCPPCPAPEAAGGPSVFLFPPKPKDTLMISRTPEVTCVVVDVSHEDPEVKFNWYVDGVEVHNAKTKPREEQYNSTYRVVSVLTVLHQDWLNGKEYKCKVSNKALPAPIEKTISKAKGQPREPQVYTLPPSREEMTKNQVSLWCLVKGFYPSDIAVEWESNGQPENNYKTTPPVLDSDGSFFLYSKLTVDKSRWQQGNVFSCSVMHEALHNHYTQKSLSLSPGK chain 2: QAVVTQEPSLTVSPGGTVTLTCRSSTGAVTTSNYANWVQQKPGQAPRGLIGGTNKRAPWTPARFSGSLLGGKAALTITGAQAEDEADYYCALWYSNLWVFGGGTKLTVLGGGGSGGGGQEQLVESGGGLVQPGGSLRLSCAASGFTFSDYYMSWVRQAPGKGLEWVATIYPSSGKTYYADSVKGRFTISSDNAKNSLYLQMNSLRAEDTAVYYCARDSYADDAALFDIWGQGTTVTVSSASTKGKVAACKEKVAALKEKVAALKEKVAALKE heavy: not shown light: not shown | 1.6 | 0.0044 | 0.0052 | 0.0153 | – | –
3 | TRIDENT-D (other) chain 1: QLVLTQSPSASASLGSSVKLTCTLSSGHKTDTIDWYQQQPGKAPRYLMKLEGSGSYNKGSGVPDRFSGSSSGADWYLTISSLQSEDEADYYCGTDYPGNYLFGGGTQLTVLGGGGSGGGGEVQLVESGGGLVQPGGSLRLSCAASGFTFSTYAMNWVRQAPGKGLEWVGRIRSKYNNYATYYADSVKGRFTISRDDSKNSLYLQMNSLKTEDTAVYYCVRHGNFGNSYVSWFAYWGQGTLVTVSSASTKGEVAACEKEVAALEKEVAALEKEVAALEKGGGDKTHTCPPCPAPEAAGGPSVFLFPPKPKDTLMISRTPEVTCVVVDVSHEDPEVKFNWYVDGVEVHNAKTKPREEQYNSTYRVVSVLTVLHQDWLNGKEYKCKVSNKALPAPIEKTISKAKGQPREPQVYTLPPSREEMTKNQVSLWCLVKGFYPSDIAVEWESNGQPENNYKTTPPVLDSDGSFFLYSKLTVDKSRWQQGNVFSCSVMHEALHNHYTQKSLSLSPGK chain 2: QAVVTQEPSLTVSPGGTVTLTCRSSTGAVTTSNYANWVQQKPGQAPRGLIGGTNKRAPWTPARFSGSLLGGKAALTITGAQAEDEADYYCALWYSNLWVFGGGTKLTVLGGGGSGGGGQEQLVESGGGLVQPGGSLRLSCAASGFTFSDYYMSWIRQAPGKGLEWVATIYPSSGKTYYADSAKGRLTISSDNAKDSLYLQMNSLRAEDTAVYYCTRDSYADDAALFDIWGQGTTVTVSSASTKGKVAACKEKVAALKEKVAALKEKVAALKE heavy: not shown light: not shown | 0.26 | – | – | – | – | –
4 | DART-B (bispecific antibody, Three chain Fc Region-containing ROR1×CD3 diabody; VH: parental) chain 1: QLVLTQSPSASASLGSSVKLTCTLSSGHKTDTIDWYQQQPGKAPRYLMKLEGSGSYNKGSGVPDRFSGSSSGADRYLTISSLQSEDEADYYCGTDYPGNYLFGGGTQLTVLGGGGSGGGGEVQLVESGGGLVQPGGSLRLSCAASGFTFSTYAMNWVRQAPGKGLEWVGRIRSKYNNYATYYADSVKGRFTISRDDSKNSLYLQMNSLKTEDTAVYYCVRHGNFGNSYVSWFAYWGQGTLVTVSSASTKGEVAACEKEVAALEKEVAALEKEVAALEKGGGDKTHTCPPCPAPEAAGGPSVFLFPPKPKDTLMISRTPEVTCVVVDVSHEDPEVKFNWYVDGVEVHNAKTKPREEQYNSTYRVVSVLTVLHQDWLNGKEYKCKVSNKALPAPIEKTISKAKGQPREPQVYTLPPSREEMTKNQVSLWCLVKGFYPSDIAVEWESNGQPENNYKTTPPVLDSDGSFFLYSKLTVDKSRWQQGNVFSCSVMHEALHNHYTQKSLSLSPGK chain 2: QAVVTQEPSLTVSPGGTVTLTCRSSTGAVTTSNYANWVQQKPGQAPRGLIGGTNKRAPWTPARFSGSLLGGKAALTITGAQAEDEADYYCALWYSNLWVFGGGTKLTVLGGGGSGGGGQEQLVESGGGLVQPGGSLRLSCAASGFTFSDYYMSWVRQAPGKGLEWVATIYPSSGKTYYADSVKGRFTISSDNAKNSLYLQMNSLRAEDTAVYYCARDSYADDAALFDIWGQGTTVTVSSASTKGKVAACKEKVAALKEKVAALKEKVAALKE chain 3: not shown | – | – | – | – | 0.65 | –
5 | DART-D (bispecific antibody, Three chain Fc Region-containing ROR1×CD3 diabody) chain 1: QLVLTQSPSASASLGSSVKLTCTLSSGHKTDTIDWYQQQPGKAPRYLMKLEGSGSYNKGSGVPDRFSGSSSGADWYLTISSLQSEDEADYYCGTDYPGNYLFGGGTQLTVLGGGGSGGGGEVQLVESGGGLVQPGGSLRLSCAASGFTFSTYAMNWVRQAPGKGLEWVGRIRSKYNNYATYYADSVKGRFTISRDDSKNSLYLQMNSLKTEDTAVYYCVRHGNFGNSYVSWFAYWGQGTLVTVSSASTKGEVAACEKEVAALEKEVAALEKEVAALEKGGGDKTHTCPPCPAPEAAGGPSVFLFPPKPKDTLMISRTPEVTCVVVDVSHEDPEVKFNWYVDGVEVHNAKTKPREEQYNSTYRVVSVLTVLHQDWLNGKEYKCKVSNKALPAPIEKTISKAKGQPREPQVYTLPPSREEMTKNQVSLWCLVKGFYPSDIAVEWESNGQPENNYKTTPPVLDSDGSFFLYSKLTVDKSRWQQGNVFSCSVMHEALHNHYTQKSLSLSPGK chain 2: QAVVTQEPSLTVSPGGTVTLTCRSSTGAVTTSNYANWVQQKPGQAPRGLIGGTNKRAPWTPARFSGSLLGGKAALTITGAQAEDEADYYCALWYSNLWVFGGGTKLTVLGGGGSGGGGQEQLVESGGGLVQPGGSLRLSCAASGFTFSDYYMSWIRQAPGKGLEWVATIYPSSGKTYYADSAKGRLTISSDNAKDSLYLQMNSLRAEDTAVYYCTRDSYADDAALFDIWGQGTTVTVSSASTKGKVAACKEKVAALKEKVAALKEKVAALKE chain 3: not shown | – | – | – | – | – | ~1
